Test results from the RNAGym collection of RNA variant scans (doi:10.7554/elife.80360).

B1: Twister Ribozyme (parent)
chain: AACACUGCCAAUGCCGGUCCCAAGCCCGGAUAAAAGUGGAGGGGGCGG

Variants of: B1
Assay: self-cleavage, relative activity (ratio to wild type); higher = more cleavage; co-transcriptional

| Variant | self-cleavage |
| --- | --- |
| G16U G29A | 0.946 |
| G16U G29C | 0.544 |
| U18C U31C | 0.569 |
| G17C G44A | 0.109 |
| G17C G44C | 0.122 |
| U18A C21U | 0.0595 |
| U18G C27U | 0.0822 |
| U18G C27G | 0.0399 |
| U18G C27A | 0.0641 |
| G17C A40U | 0.0929 |
| G17C A40C | 0.117 |
| U18C A40U | 0.113 |
| U18C A40C | 0.0612 |
| U18C A40G | 0.121 |
| G17C G24C | 0.0583 |
| G17C G24A | 0.0848 |
| G17C G24U | 0.0734 |
| U18C G28C | 0.124 |
| U18C G28A | 0.181 |
| G17C C21A | 0.0572 |
| G17U G44C | 0.293 |
| U18A U31A | 0.584 |
| G17U G38C | 0.203 |
| G17U G38A | 0.206 |

| Variant | self-cleavage |
| --- | --- |
| G17U G28U | 0.122 |
| G17U G28A | 0.11 |
| G16U G39A | 0.595 |
| G16U G39U | 0.225 |
| G17A A22C | 0.669 |
| G17A A22U | 0.258 |
| G17A A22G | 0.136 |
| G17U C20A | 0.0851 |
| U18G C19G | 0.114 |
| U18G C19A | 0.0794 |
| G17U G29C | 0.0894 |
| G17U G29A | 0.118 |
| G17U G29U | 0.158 |
| U18C C25G | 0.104 |
| U18C C25U | 0.16 |
| U18A G24C | 0.0951 |
| U18A G24U | 0.094 |
| U18A G24A | 0.0868 |
| G17U A33U | 0.257 |
| G17U A33G | 0.317 |
| G17U A33C | 0.199 |
| G17U C25U | 0.204 |
| G17U G39A | 0.119 |
| G16C G41C | 0.0971 |

| Variant | self-cleavage |
| --- | --- |
| G16C G41U | 0.103 |
| U18C C26A | 0.0527 |
| U18A A34C | 0.113 |
| G16C G36C | 0.0717 |
| G16C G36U | 0.113 |
| U18G A23G | 0.0817 |
| U18G A23C | 0.0482 |
| U18G A40U | 0.0452 |
| U18G A40G | 0.0494 |
| U18A C20G | 0.0551 |
| U18A C20U | 0.168 |
| U18A G39A | 0.104 |
| G17C C26A | 0.286 |
| G17C C26U | 0.17 |
| G17U G47U | 0.181 |
| G17U G47C | 0.183 |
| G16U G43C | 0.183 |
| G16U G43U | 0.313 |
| G16U G43A | 0.203 |
| G17C C46A | 0.107 |
| G17U C46G | 0.301 |
| G17U U31A | 0.471 |
| G17U U31G | 0.339 |
| U18A A23C | 0.372 |

| Variant | self-cleavage |
| --- | --- |
| U18A A23U | 0.753 |
| G17A A40C | 0.105 |
| G17A A40G | 0.171 |
| G17A A40U | 0.117 |
| G17C G42U | 0.0737 |
| G16C C25A | 0.0993 |
| U18G G24U | 0.0765 |
| G17U G45A | 0.148 |
| U18C G47A | 0.288 |
| U18C G47C | 0.162 |
| U18C G47U | 0.288 |
| G16U C25A | 0.206 |
| G16U C25G | 0.154 |
| G17A G38U | 0.468 |
| G17A G38C | 0.54 |
| U18C A35C | 0.641 |
| U18C A35G | 0.139 |
| U18C C19G | 0.0747 |
| U18C C19U | 0.247 |
| G17A C26A | 0.78 |
| G17A C26G | 0.442 |
| U18G G29A | 0.089 |
| U18G G29U | 0.0942 |
| U18C G41C | 0.0753 |

| Variant | self-cleavage |
| --- | --- |
| U18C G41U | 0.13 |
| G17U A35C | 0.305 |
| G17U A35G | 0.1 |
| G17C G39A | 0.0934 |
| G17C G43C | 0.0789 |
| G17C G48C | 0.152 |
| U18A G45C | 0.155 |
| U18A G45A | 0.32 |
| U18G C46U | 0.129 |
| U18G C46G | 0.0845 |
| G16U A30U | 1.08 |
| G16U A30C | 0.804 |
| G17C C20G | 0.0846 |
| G17C C19U | 0.105 |
| G17C C19G | 0.0591 |
| G17C C19A | 0.0513 |
| G16C G38C | 0.572 |
| U18A G43C | 0.144 |
| U18A G43U | 0.125 |
| G17C A22G | 0.0562 |
| G17C G28A | 0.069 |
| G17C G28U | 0.0606 |
| G17C G28C | 0.0667 |
| U18C G39A | 0.111 |

| Variant | self-cleavage |
| --- | --- |
| U18C G39C | 0.108 |
| G16U G38U | 0.914 |
| U18A G47U | 0.174 |
| G16U A23U | 0.238 |
| G16U G24U | 0.0815 |
| G16U G24A | 0.129 |
| G17A C21G | 0.073 |
| G17C A33U | 0.0842 |
| G17C A33G | 0.093 |
| G17U G42U | 0.126 |
| G16U A40G | 0.206 |
| G16C G28A | 0.194 |
| G16C G28U | 0.383 |
| G17U A30G | 0.265 |
| U18C A22U | 0.243 |
| U18C A22C | 0.397 |
| U18A A30C | 0.104 |
| G16C U31G | 0.663 |
| G17A G43C | 0.129 |
| G17A G43U | 0.123 |
| U18A C19G | 0.0926 |
| U18A C19U | 0.266 |
| G16C C26A | 0.35 |
| G17A G45C | 0.278 |

| Variant | self-cleavage |
| --- | --- |
| G16U G36U | 0.124 |
| G16U G36A | 0.426 |
| G16U C21A | 0.137 |
| G16U C21G | 0.101 |
| G16U C21U | 0.105 |
| U18C A30U | 0.512 |
| U18G C20U | 0.102 |
| G16C U37C | 0.0928 |
| G16C U37A | 0.165 |
| U18C C20U | 0.375 |
| U18G G28A | 0.0711 |
| U18G G28C | 0.102 |
| U18G G38A | 0.0601 |
| U18C G24A | 0.0865 |
| G16C G43A | 0.148 |
| U18G A33C | 0.0995 |
| U18G A33G | 0.0866 |
| G16U A22G | 0.21 |
| G16U A22C | 0.925 |
| G16U A22U | 0.759 |
| U18G G36U | 0.083 |
| U18A C27U | 0.385 |
| U18C G44U | 0.498 |
